The results in this text go back to the supplement of paper PMC7125110.

First the molecules themselves.
B1: glmS ribozyme (parent)
chain: AUAAAAGCGCCAGAACUACAGAAAUGUAGUUGACGAGGAGGAGGUUUAUCGAAUUUUCGGCGGAUGCCUCCAAA

± gives the standard error. Fewer inactive variants are shown than the library holds.

Variants of B1 are the subject of the first data set. As to the kind of experiment: self-cleavage kobs at 2500 uM GlcN6P; higher = faster cleavage; RNA array. The note with it: with glucosamine-6-phosphate. The procedure, abridged: (§1)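 Barcoded ribozyme variants on sequenced MiSeq chips were transcribed in situ by E. coli RNA polymerase and followed at 37 °C through a hybridised Cy3 probe. Glucosamine-6-phosphate at 40 μM to 10 mM in HEPES/KCl/Mg(OAc)2 buffer was flowed in, and tiles were imaged over ~14 h. Signals were normalised to baseline and to non-cleaving reference variants, and per-tile medians were fit to one- or two-exponential decays to give kobs. Weighted Michaelis–Menten fits across concentrations gave kcat and KM.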
Take AUAAAAGCGCCAGAACUACAGAAAUGUAAUUGACGAGGAGUAGGUUUAUCGAAUUUUCGGCGGAUGCUUCCAAA [G29A G41U C68U]: the “self-cleavage kobs at 2500 uM GlcN6P” value is less than 1e-05 s⁻¹. In the case of AUAAAAGCGGCAGAACUACAGAAAUGUAGUUGACGAGGAGGAGGUUCAUCGAUAUUUCGGCGGAUGCCUUCAAA [C10G U47C A53U U54A C70U], the “self-cleavage kobs at 2500 uM GlcN6P” value was less than 1e-05 s⁻¹. Same read-out and setting: then AUAAAAGCCCCAGAACUACAGAAAUGUAGUUGACGAGGAGGAGGUUUAUCGAAUUUUCGGCGGAUGACUGCAAA [G9C C67A C70G], with less than 1e-05 s⁻¹; and AUAAAAGCGCCAGAACUACAGAAAUGUAGUUGACGAGGAGGAGGUUUAUCGAAUGUUCGGCGGAUGCCUUGAAA [U55G C70U C71G], with 7.27e-05 ± 1.7e-05 s⁻¹; and AUAAAAGCGGCAGUACUACAGAAAUGUAGUUGACUAGGAGGAGGUUUAUCGAAUUUUCGCCGGAUGCCUCCAAA [C10G A14U G35U G60C], with less than 1e-05 s⁻¹.

AUAAAAGCGCCAGAACUACAGAAAUGUAGAUGACGAGGAGGAGGUUUAUCGAAUUUUAGGCGGAUGUCUCCAAA [U30A C58A C67U]: the “self-cleavage kobs at 2500 uM GlcN6P” value came out at 4.25e-05 ± 1.9e-05 s⁻¹.

On to AUAAAAGCGCCAAAACUACAGAAAUGUAGUUGACAAGGAGGUGGUUUAUCGAAUUUUCGGCGGAUGCCUCCAAA [G13A G35A A42U], for which the “self-cleavage kobs at 2500 uM GlcN6P” value was less than 1e-05 s⁻¹.

On to AUAAAAGCGCCGGAACUACAGAAAUGUAGUUGACGAGGAGGAGGUUUAUCGAACUUUCGGCGGAGGCCUCCAAA [A12G U54C U65G], for which the “self-cleavage kobs at 2500 uM GlcN6P” value was 3.01e-05 ± 1.2e-05 s⁻¹. Take AUAAAAGCGCCAGACCUACAGAAAUGUAGUAGACGAGGAGGAGGUUUAUCGAGUUUUCGGCGGAUGCCUCGAAA [A15C U31A A53G C71G]: the “self-cleavage kobs at 2500 uM GlcN6P” value was 0.000222 ± 4.5e-05 s⁻¹. As for AUAAAAGUGCCCGACCUACAGAAAUGUAGUUGCCGAGGAGGAGGGUUAUGGAAUUUUCGGCGGAUGCCUCCAAA [C8U A12C A15C A33C U45G C50G], the “self-cleavage kobs at 2500 uM GlcN6P” value is less than 1e-05 s⁻¹. The same measure, in the same setting: then AUAAAAGCGCCAGAACUACAGAAAUGUAGUUGACGAGGAGGAGUAUAAUCGAAUUUUCGGCGGAUGCCUCCAAA [G44U U45A U47A], with 0.000474 ± 0.0002 s⁻¹; and AUAAAAGCGCCAGAACUACAGAAAUGUAGUUGAUGAGGAGGAGGGUUAUCGAAUUUUCGGCGGAUGCCUCCAAA [C34U U45G], with less than 1e-05 s⁻¹. Still for that read-out and setting: the same measure for AUAAAAGCGCCAGAACUACAGAAAUGUAGUUGGCGGGGAGGAGGUUUAUCGUAUUUUCGGCGGAUGCCUCCAAA [A33G A36G A52U]: less than 1e-05 s⁻¹.

For AUAAAAGCGCCAGAACUACAGAAAUGUAGUUGACGAGGUGGUGGUUAAUCGAAUUUUCGGCGGAUGCCUCCAAA [A39U A42U U47A], the “self-cleavage kobs at 2500 uM GlcN6P” value came to 0.0025 ± 0.0012 s⁻¹. Still for that read-out and setting: the same measure for AUAAAAGCGCCAGAACUACAGAAAUGUAGAUGACGAGGAGGAGGUUUACCGAAUUUUCGGCGGAUCCCUCCAAA [U30A U49C G66C]: less than 1e-05 s⁻¹; for AUAAAAGUACCAGAACUACAGAAAUGUAGUUGACGAGGAGGAGGAUUAUCGAAUUUUCGGCGGAUGCCCCCAAA [C8U G9A U45A U69C]: less than 1e-05 s⁻¹.

For AUAAAAGCGCCAGCACUACAGAAAUGUAGUUAACGAGGAGGAGGUUUAUCGAAUUUUCGGCGGAUGGCUCCAAA [A14C G32A C67G], the “self-cleavage kobs at 2500 uM GlcN6P” value was 6.42e-05 ± 1.9e-05 s⁻¹. The same measure, in the same setting: the same measure for AUAAAAGCGCCAAAACUACAGAAAUGUAGAUGACGAGGAGGAGGAUUAUCGAAUUUGCGUCGGACGCGUCCAAA [G13A U30A U45A U57G G60U U65C C68G]: less than 1e-05 s⁻¹.

Regarding AUAAAAGCGCCUGAUCUACAGAAAUGUAGUUGACGAGGAGGAGGUUCAUCGAAUUUUCGGCGGAUGCCUCCAAA [A12U A15U U47C], the “self-cleavage kobs at 2500 uM GlcN6P” value came to 0.000776 ± 0.00023 s⁻¹. In the case of AUAAAAGCGCCAUAACUACAGAAAUGUAGUUGGCGAGGAGGAGGCUUAUCGAAUUUUCGGCGAAUGCCUCCAAA [G13U A33G U45C G63A], the “self-cleavage kobs at 2500 uM GlcN6P” value is less than 1e-05 s⁻¹.

Turning to AUAAAAGCGCCAGAACUACAGAAAUGUAUUUGACAAGGAGGUGGUUUAUCGAAUUUUCGGCGGAUGCCUCCAAA [G29U G35A A42U], the “self-cleavage kobs at 2500 uM GlcN6P” value was less than 1e-05 s⁻¹. With AUAAAAGCGCCCGAAUUACAGAAAUGUAGUGGACGAGGAGUAUGUUUAUCGAAUUUUCGGCGGAUGCCUCCAAA [A12C C16U U31G G41U G43U], the “self-cleavage kobs at 2500 uM GlcN6P” value was less than 1e-05 s⁻¹. Same read-out and setting: the same measure for AUAAAAGCGCCAGAAUUACAGAAAUGUAUUUGACGAGGAGGAGGUUUAUCGAAUUUUCGGCGGAUGCCUGAAAA [C16U G29U C70G C71A]: 7.2e-05 ± 1.7e-05 s⁻¹. On to AUAAAAGCGCCAGAACUACAGAAAUGUAGCUGACGAGGAGGAGUGUUAUCGAAUUUUCGGCGGAUGCCGCCAAA [U30C G44U U45G U69G], for which the “self-cleavage kobs at 2500 uM GlcN6P” value is less than 1e-05 s⁻¹. On the same count and under the same terms, then AUAAAAGCGCCGGAACUACAGAAAUGUAGUUGACGAUGAGGAGGUUUAUCGACUUUUCGGCAGUUGCGUCCAAA [A12G G37U A53C G62A A64U C68G], with less than 1e-05 s⁻¹. Same read-out and setting: then AUAAAAGCGCCACAACUACAGAAAUGUAGUUGACGAGGAGGAGGUUUAUCGAAUUUUCGGCGGAUGCCUCUAAA [G13C C71U], with 9.01e-05 ± 1.5e-05 s⁻¹.

For AUAAAAGCGCCAGAACUACAGAAAUGUAGUUGACGACGAGGAGGUUCAUCGAAUUUUAGGCGGAUGCCUCCAAA [G37C U47C C58A], the “self-cleavage kobs at 2500 uM GlcN6P” value is less than 1e-05 s⁻¹. For the variant AUAAAAGCGCUAGAACUACAGAAAUGUAGUUGACGAGGAGGAGGUUUAUCGCAUUUUCGGCGGAUGCUUCGAAA [C11U A52C C68U C71G], the “self-cleavage kobs at 2500 uM GlcN6P” value is 0.0003 ± 0.00014 s⁻¹. Still for that read-out and setting: the same measure for AUAAAGGCGCCAGAACUACAGAAAUGUAGUUGACGAAGAGGAGGUUUAUCGAAUUUUCGGCGGAUUCCUUCAAA [A6G G37A G66U C70U]: less than 1e-05 s⁻¹; for AUAAAAGCGCCAGAACUACAGAAAUGUAGUUGACGAGGAGGAGGUUUAUCGAAUAUUCGGCGGCUGCCUCUAAA [U55A A64C C71U]: 7.29e-05 ± 3.2e-05 s⁻¹.

In the case of AUAAAAGCGUCAGAACUACAGAAAUGUAGUUGACGAGGAAGAGCUUUAUCGAAUUUUCGGCGGAUGCCUACAAA [C10U G40A G44C C70A], the “self-cleavage kobs at 2500 uM GlcN6P” value is less than 1e-05 s⁻¹. The same measure, in the same setting: the same measure for AUAAAAGCGCCAGACGUACAGAAAUGUAGUAGACGAGGAGGAGGUUUAUCGAGUUUUAGGCGGAUGCCUCCAAA [A15C C16G U31A A53G C58A]: 4.06e-05 ± 1.5e-05 s⁻¹.

Another data set covers variants of B1. The experiment in a line: self-cleavage kobs at 10000 uM GlcN6P; higher = faster cleavage; RNA array. The note with it: with glucosamine-6-phosphate. The procedure, abridged: as §1
In the case of AUAAAAGCGCCAGAACUACAGAAAUGUAGUUGACGAGGAGGAGGUUUAUCGAAUGUUCGGCGGAUGCCUUGAAA [U55G C70U C71G], the “self-cleavage kobs at 10000 uM GlcN6P” value is 0.000142 ± 3.8e-05 s⁻¹. On the same count and under the same terms, the same measure for AUAAAAGCGCCAGAACUACAGAAAUGUAGUUGAUGAGGAGGAGGGUUAUCGAAUUUUCGGCGGAUGCCUCCAAA [C34U U45G]: less than 1e-05 s⁻¹. Same read-out and setting: the same measure for AUAAAAGCGCCAGAACUACAGAAAUGUAGUUGGCGGGGAGGAGGUUUAUCGUAUUUUCGGCGGAUGCCUCCAAA [A33G A36G A52U]: less than 1e-05 s⁻¹. Same read-out and setting: the same measure for AUAAAAGCGCCAGAACUACAGAAAUGUAGUUGACGAGGUGGUGGUUAAUCGAAUUUUCGGCGGAUGCCUCCAAA [A39U A42U U47A]: 0.00362 ± 0.0011 s⁻¹; for AUAAAAGCGCCACAACUACAGAAAUGUAGUUGACGAGGAGGAGGUUUAUCGAAUUUUCGGCGGAUGCCUCUAAA [G13C C71U]: 0.000149 ± 1.6e-05 s⁻¹.
